This note sets out measurements from US20210095028A1 (NANJING LEGEND BIOTECH, published 2021).

For assay [1], the target named is T1, Human TIGIT protein with HIS tag (human, UniProt Q495A1 22-141).
T1 construct: A soluble analyte is probably only the extracellular part; also called human TIGIT recombinant protein; not shown: HIS tag
T1 sequence: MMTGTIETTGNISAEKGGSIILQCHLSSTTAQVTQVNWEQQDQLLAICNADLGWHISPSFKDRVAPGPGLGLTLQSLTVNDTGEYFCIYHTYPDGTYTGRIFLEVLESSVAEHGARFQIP
In words: SPR Biacore T200; antibody Fc-captured, TIGIT-His analyte. The procedure: Binding kinetics of mouse anti-human TIGIT monoclonal antibodies to human TIGIT were determined using a Surface Plasmon Resonance (SPR) biosensor, BIACORE® T200 (GE Healthcare; Little Chalfont, United Kingdom). […] Each mouse anti-human TIGIT monoclonal antibody was immobilized on the sensor chip through the Fc capture method. Human TIGIT protein with HIS tag was used as the analyte. The dissociation (kd) and association (kₐ) rate constants were obtained using the BIACORE® T200 evaluation software. The apparent equilibrium dissociation constants (KD) were calculated from the ratio of kd over kₐ.

Assay [2] has as its target T2, human TIGIT over-expressed on cells (human, UniProt Q495A1 22-244).
T2 construct: also called CHO-K1/human TIGIT cells; CHO cells expressing human TIGIT
T2 sequence: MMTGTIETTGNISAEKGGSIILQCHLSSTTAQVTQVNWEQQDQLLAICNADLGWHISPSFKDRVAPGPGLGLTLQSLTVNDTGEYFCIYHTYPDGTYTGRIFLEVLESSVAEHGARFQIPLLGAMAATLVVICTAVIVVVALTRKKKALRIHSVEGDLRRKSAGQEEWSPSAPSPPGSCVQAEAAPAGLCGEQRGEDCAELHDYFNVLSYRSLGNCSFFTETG
In words: FACS, CHO-K1 cells over-expressing human TIGIT. The procedure:
(§1) The mixture was equilibrated for 30 minutes at room temperature and washed three times with FACS buffer (PBS containing 1% BSA). iFluor labeled goat anti-mouse IgG as the secondary antibody was added and incubated at room temperature for 45 min. Finally, the cells were washed 3 time with PBS, and the signal was read by FACS BD Calibur. Data was analyzed with PRISM™ (GraphPad Software, San Diego, Calif.) using non-linear regression and EC₅₀ values were calculated.

Assay [3] deals with T2, human TIGIT over-expressed on cells. In words: competition FACS, CHO cells expressing human TIGIT; competitor PVR recombinant protein. The procedure:
The mixture was equilibrated for 30 minutes at room temperature, and washed three times with FACS buffer (PBS containing 1% BSA). PE/Cy5 Streptavidin secondary antibody was then added to the mixtures and incubated for 15 minutes at room temperature. Subsequently, the cells were washed with FACS buffer and analyzed by flow cytometry. Data was analyzed with PRISM™ (GraphPad Software, San Diego, Calif.) using non-linear regression, and IC₅₀ values were calculated (FIGS. 4A-4B and Table 6).

Assay [4] concerns the target T3, cynomolgus TIGIT over-expressed on CHO-K1 cells (cynomolgus, UniProt A0A7N9I9V4 89-312).
T3 construct: whole, on cells; also called CHO-K1/cynomolgus TIGIT cells
Description: FACS, CHO-K1 cells over-expressing cynomolgus TIGIT. As for the experimental part:
as §1
Background: A flow cytometer gives signals particle by particle.

The target in assay [5] is T2, human TIGIT over-expressed on cells. In words: cell-based or functional assay.
Assay [6] shares this target. In words: cell-based or functional assay. The source holds these as a separate data set.
Assay [7] has the same target. In words: FACS, CHO-K1 cells over-expressing human TIGIT. The procedure:
as §1, with “Binding affinities of the chimeric anti-human TIGIT monoclonal antibodies and the humanized anti-human TIGIT monoclonal antibodies to human or cynomolgus TIGIT over-expressed on CHO-K1 cells were determined using a fluorescence-activated cell sorting (FACS)-based assay. […] The” for “The”
The source holds these as a separate data set.

The target of assay [8] is T3, cynomolgus TIGIT over-expressed on …. In words: FACS, CHO-K1 cells over-expressing cynomolgus TIGIT. As for the experimental part: as §1, with “Binding affinities of the chimeric anti-human TIGIT monoclonal antibodies and the humanized anti-human TIGIT monoclonal antibodies to human or cynomolgus TIGIT over-expressed on CHO-K1 cells were determined using a fluorescence-activated cell sorting (FACS)-based assay. […] The” for “The”
The source holds these as a separate data set.

In assay [9] the target is T1, Human TIGIT protein with HIS tag. Description: SPR Biacore T200; antibody Fc-captured, TIGIT-His analyte. As for the experimental part:
Binding kinetics of the chimeric anti-human TIGIT monoclonal antibodies and the humanized anti-human TIGIT monoclonal antibodies to human TIGIT were determined using a Surface Plasmon Resonance (SPR) biosensor, BIACORE® T200 (GE Healthcare). Different concentrations of the chimeric anti-human TIGIT monoclonal antibodies or humanized anti-human TIGIT monoclonal antibodies were prepared starting at 50 nM with a 3-fold serial dilution. Each chimeric anti-human TIGIT monoclonal antibody or each humanized anti-human TIGIT monoclonal antibody was immobilized on the sensor chip through the Fc capture method. Human TIGIT protein with a HIS tag was used as the analyte. The dissociation (kd) and association (kₐ) rate constants were obtained using the BIACORE® T200 evaluation software. The apparent equilibrium dissociation constants (KD) were calculated from the ratio of kd over kₐ.
The source holds these as a separate data set.

For assay [10], the target named is T2, human TIGIT over-expressed on cells. In words: competition FACS, CHO cells expressing human TIGIT; competitor PVR recombinant protein. The procedure:
(§2) To assess the competitive binding on human TIGIT between the chimeric anti-human TIGIT monoclonal antibodies or the humanized anti-human TIGIT monoclonal antibodies and PVR, the chimeric anti-human TIGIT monoclonal antibody or the humanized anti-human TIGIT monoclonal antibody samples were prepared (starting at 300 nM, ≤3-fold serial dilution with 10 concentrations). CHO cells expressing human TIGIT were dissociated from adherent culture flasks and mixed with varying concentrations of each chimeric anti-human TIGIT monoclonal antibody or the humanized anti-human TIGIT monoclonal antibody and 5 μg/ml […] fusion protein having a biotin label. The mixture was equilibrated for 30 minutes at room temperature and washed three times with FACS buffer (PBS containing 1% BSA). PE/Cy5 Streptavidin secondary antibody was then added to the mixtures and incubated for 15 minutes at room temperature. Subsequently, the cells were washed with FACS buffer and analyzed by flow cytometry. Data was analyzed with PRISM™ (GraphPad Software, San Diego, Calif.) using non-linear regression, and IC₅₀ values were calculated (FIG. 7 and Table 13).
The source holds these as a separate data set.

The target is the same in assay [11]. Description: competition FACS, CHO cells expressing human TIGIT; competitor PVR recombinant protein (column headed EC50, text says IC50). As for the experimental part:
as §2

Assay [12] shares this target. In words: cell-based or functional assay. The source holds these as a separate data set.

Where two headings read alike, the source gives them in different places.

T3 sequence (A0A7N9I9V4 entry or part of it): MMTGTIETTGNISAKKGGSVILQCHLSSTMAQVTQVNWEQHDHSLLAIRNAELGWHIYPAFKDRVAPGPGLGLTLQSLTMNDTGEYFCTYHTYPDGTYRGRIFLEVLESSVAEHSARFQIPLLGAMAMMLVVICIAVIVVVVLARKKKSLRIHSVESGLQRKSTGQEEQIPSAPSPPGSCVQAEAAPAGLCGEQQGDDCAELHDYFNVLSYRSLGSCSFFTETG

B1: 64G1E9B4 (antibody, V domains shown)
VH: EVQLQQSGPELVKPGASVKISCKTSGYTFTEHVIHWVKQSHGKSLEWIGGFNPNHDGTIYNQIFRGKATLTVDKSSSTAYMELRSLTSEDSAVYFCTRAAKLLFAMDYWGQGTSVTVSS
VL: DIVMTQSHKFMSTSIGDRVSITCKASQHVSNAVVWYQQKPGQSPKLLIYSPSYRFTGVPDRFTGSGSGTDFTFTISSVQAEDLAVYYCQQHYSTPWTFGGGTKLEIK
notes: Mouse monoclonal antibody; also called mouse anti-human TIGIT monoclonal antibody 64G1E9B4
Broadly, the Kd is a measure of binding affinity in units of concentration. A low value points to a tighter complex. As a reminder, the koff is the rate constant with which the complex falls apart. Higher therefore signals fast dissociation. For orientation: kon means the rate constant with which the complex forms. By EC50 is commonly meant the concentration that produces a half-maximal response. High values mean lower potency in that assay, low ones higher potency in that assay. The term IC50 denotes the concentration needed to halve the response being measured. For B1, in assay [1], the Kd is 230 pM, the koff is 0.00015 s⁻¹ and the kon came to 650000 M⁻¹ s⁻¹. Further, in assay [2], the “Bottom (best-fit)” value amounted to 15.3, the EC50 stood at 610 pM and the “Top (best-fit)” value was determined as 113. Moreover, in assay [3], the “Bottom (best-fit)” value was 9.5, the IC50 turned out to be 1000 pM and the “Top (best-fit)” value was determined as 67.1. Moreover, in assay [4], the “Bottom (best-fit)” value stood at 15.3, the EC50 turned out to be 1580 pM and the “Top (best-fit)” value is 455. In assay [5], the “IL-2 secretion in T cell activation, Bottom (best-fit)” value (from here on “IL-2 secretion … Bottom (best-fit)”) came to 111; the “IL-2 secretion in T cell activation, EC50” value (from here on “IL-2 secretion … EC50”) turned out to be 820 pM; the “IL-2 secretion in T cell activation, Top (best-fit)” value (“IL-2 secretion … Top (best-fit)” for short) was determined as 283. In addition, in assay [6], the “luciferase signal in T cell activation, Bottom (best-fit)” value is 5.7; the “luciferase signal in T cell activation, EC50” value came to 1640 pM; the “luciferase signal in T cell activation, Top (best-fit)” value is 124.

B2: 121C2F10B5 (antibody, V domains shown)
VH: EVQLVESGGDLVKPGGSLKLSCAASGFTFSTYGMSWVRQTPDKRLEWVATISSGGSYTYYPDSVKGRFTISRDNAKNTLYLQMSSLKSEDTAMYYCARQVHYFYAMDYWGQGTSVTVSS
VL: DIQMTQSPASLSVSVGETVTITCRASENIYSNLAWYQQKQGKSPQVLVYAATNLADGVPSRFSGSRSGTQYSLKINSLQSEDFGSYYCQHFWDNAYTFGGGTKLEIK
notes: Mouse monoclonal antibody; also called mouse anti-human TIGIT monoclonal antibody 121C2F10B5
As to B2, in assay [1], the Kd is 720 pM, the koff stood at 0.00093 s⁻¹ and the kon was found to be 1.3e+06 M⁻¹ s⁻¹. For the same molecule, in assay [2], the “Bottom (best-fit)” value amounted to 14.2, the EC50 stood at 360 pM and the “Top (best-fit)” value was determined as 92.7. Also, in assay [3], the “Bottom (best-fit)” value came out at 11.8, the IC50 was 600 pM and the “Top (best-fit)” value is 68.8. Moreover, in assay [4], the “Bottom (best-fit)” value is 7.6, the EC50 stood at 10200 pM and the “Top (best-fit)” value is 120. For the same molecule, in assay [5], the “IL-2 secretion … Bottom (best-fit)” value amounted to 96.2; the “IL-2 secretion … EC50” value is 1020 pM; the “IL-2 secretion … Top (best-fit)” value was found to be 197. In assay [6], the “luciferase signal in T cell activation, Bottom (best-fit)” value was 5.4; the “luciferase signal in T cell activation, EC50” value is 4380 pM; the “luciferase signal in T cell activation, Top (best-fit)” value amounted to 153.

B3: 64G1E9B4VH1_VL1.M1 (antibody, human IgG1, V domains shown)
VH: EVQLVQSGAEVKKPGSSVKVSCKASGYTFTEHVIHWVRQAPGQGLEWMGGFNPNHDGTIYNQIFRGRVTITADKSTSTAYMELSSLRSEDTAVYYCARAAKLLFAMDYWGQGTTVTVSS
VL: DIQMTQSPSSLSASVGDRVTITCRASQHVSNAVVWYQQKPGKAPKLLIYSPSYRFTGVPSRFSGSGSGTDFTLTISSLQPEDFATYYCQQHYSTPWTFGGGTKVEIK
notes: Humanized antibody, variable domains fused with the constant region of human IgG1; also called 64G1VH1_VL1.M1
As for B3, in assay [7], the “Bottom (best-fit)” value amounted to 3190; the midpoint of the response, the EC50, lay at 890 pM; the “Top (best-fit)” value was 22900. Also, in [8], the “Bottom (best-fit)” value was determined as 3010, the EC50 was found to be 1650 pM and the “Top (best-fit)” value was 24700. In [9], this molecule gave a Kd of 150 pM, a koff of 8.8e-05 s⁻¹ and an on-rate constant (kon) of 590000 M⁻¹ s⁻¹. In [10], the “Bottom (best-fit)” value turned out to be 139 and the “Top (best-fit)” value was 820. Besides, the IC50 in assay [11] is 790 pM. In [12], the “IL-2 secretion … Bottom (best-fit)” value was found to be 182; the “IL-2 secretion … EC50” value was determined as 1270 pM; the “IL-2 secretion … Top (best-fit)” value stood at 508.

B4: 64G1E9B4VH1.M1_VL1.M1 (antibody, human IgG1, V domains shown)
VH: EVQLVQSGAEVKKPGSSVKVSCKASGYTFTEHVIHWVRQAPGQGLEWMGGFNPNHGGTIYNQIFRGRVTITADKSTSTAYMELSSLRSEDTAVYYCARAAKLLFAMDYWGQGTTVTVSS
VL: DIQMTQSPSSLSASVGDRVTITCRASQHVSNAVVWYQQKPGKAPKLLIYSPSYRFTGVPSRFSGSGSGTDFTLTISSLQPEDFATYYCQQHYSTPWTFGGGTKVEIK
notes: Humanized antibody, variable domains fused with the constant region of human IgG1; also called 64G1VH1.M1_VL1.M1
For the molecule B4, in assay [7], the “Bottom (best-fit)” value turned out to be 1530, the EC50 came out at 430 pM and the “Top (best-fit)” value was found to be 24700. Further, in assay [8], the “Bottom (best-fit)” value amounted to 5530, the EC50 came to 910 pM and the “Top (best-fit)” value is 29200. In assay [9], this molecule showed an equilibrium dissociation constant (Kd) of 170 pM, an off-rate (koff) of 0.0001 s⁻¹ and a kon of 630000 M⁻¹ s⁻¹. In assay [10], the “Bottom (best-fit)” value was determined as 201 and the “Top (best-fit)” value was 508. In addition, the 50% inhibitory concentration (IC50) in [11] is 350 pM. In addition, in assay [12], the “IL-2 secretion … Bottom (best-fit)” value amounted to 209; the “IL-2 secretion … EC50” value was found to be 630 pM; the “IL-2 secretion … Top (best-fit)” value stood at 467.
